From patent publication US20040105855A1 (Bristol-Myers Squibb, published 2004) come the findings set out here.

In assay [1] the target is T1, hu4-1BBIg fusion protein (extracellular domain of H4-1BB fused to the constant domains of a human IgG1 … (human, UniProt Q07011 24-186; P01857 99-330 = IgG part).
T1 construct: extracellular domain;domain: constant domains of a human IgG1 antibody; also called immobilized H4-1BB; Human 4-1BB receptor; not shown: thrombin cleavage site between the 4-1BB and Ig portions
As to the kind of experiment: SPR BIAcore 3000, antibody 10-100 nM over low-density immobilized H4-1BB (557 RU), global fit, Bivalent Analyte Model (KA1). As to the method: (§1) These studies were carried out on a BIAcore 3000 instrument (BIAcore Inc., Piscataway, N.J.). Dilutions of the antibodies were injected under identical conditions over sensorchip surfaces of immobilized H4-1BB.
(§2) Human 4-1BB receptor was immobilized covalently to a low density on a carboxy-methylated dextran surface of a BIAcore sensorchip (BIAcore Inc., Piscataway, N.J.). Through primary amino groups the fusion protein, injected at 2 μg/mL in 10 mM acetate buffer, pH 5.0, bind to an EDC/NHS-activated surface. […] After regenerating with 10 mM glycine, pH 2.0 the surface was ready for binding studies. Antibodies 39E3 and hu39E3.G4 were diluted to concentrations between 10 nM and 100 nM using HBS-EP buffer. All mAb dilutions were injected over two flow cells (FC) at a flow rate of 25 μl/minute. FC1 served as a negative control, FC2 had low density of human 4-1BB (557 RU). Bound anti-human 4-1BB mAbs were removed by regeneration with 10 mM Glycine pH 1.75.
(§3) Kinetic parameters were calculated with BIAevaluation program (version 3.1) (BIAcore Inc., Piscataway, N.J.). A global curve fit analysis was performed using a Bivalent Analyte Model (BIAcore Inc. Piscataway, N.J.). […] The binding affinities for the parental mAb, 39E3, and the humanized anti-H4-1BB mAb are shown below in Table 3.
(In SPR one partner is held on a chip, and binding of the other changes the refractive index at the surface.)

For assay [2], the target named is T1, hu4-1BBIg fusion protein (extracellular …). As to the kind of experiment: SPR BIAcore 3000, antibody 10-100 nM over low-density immobilized H4-1BB (557 RU), global fit, Bivalent Analyte Model (Ka1). As to the method: as §1, §2, §3
For assay [3] the target is unchanged. As to the kind of experiment: SPR BIAcore 3000, antibody 10-100 nM over low-density immobilized H4-1BB (557 RU), global fit, Bivalent Analyte Model (KD1). As to the method:
as §1, §2, §3

Assay [4] has the same target. As to the kind of experiment: SPR BIAcore 3000, antibody 10-100 nM over low-density immobilized H4-1BB (557 RU), global fit, Bivalent Analyte Model (Kd1). As for the experimental part:
as §1, §2, §3

T1 sequence (Q07011 other isoform, or with tags, fused parts or gaps): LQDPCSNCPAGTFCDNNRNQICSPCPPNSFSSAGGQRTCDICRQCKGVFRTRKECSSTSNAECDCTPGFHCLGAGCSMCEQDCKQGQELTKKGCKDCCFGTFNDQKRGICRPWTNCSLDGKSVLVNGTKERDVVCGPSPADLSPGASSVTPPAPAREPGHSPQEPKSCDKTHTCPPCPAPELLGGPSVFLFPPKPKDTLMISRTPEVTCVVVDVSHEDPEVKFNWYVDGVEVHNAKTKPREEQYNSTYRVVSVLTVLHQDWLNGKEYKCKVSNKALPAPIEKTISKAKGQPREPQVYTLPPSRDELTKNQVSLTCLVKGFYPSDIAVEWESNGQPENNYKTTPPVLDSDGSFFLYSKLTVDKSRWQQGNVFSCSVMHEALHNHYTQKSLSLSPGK

B1: hu39E3.G4 (humanized 39E3, IgG4) (antibody, V domains shown)
VH: EVQLVESGGGLVQPGGSLRLSCAASGFTFSDYWMSWVRQAPGKGLEWVADIKNDGSYTNYAPSLTNRFTISRDNAKNSLYLQMNSLRAEDTAVYYCARELTGTWGQGTMVTVSS
VL: DIVMTQSPDSLAVSLGERATINCKSSQSLLSSGNQKNYLAWYQQKPGQPPKLLIYYASTRQSGVPDRFSGSGSGTDFTLTISSLQAEDVAVYYCLQYDRYPFTFGQGTKLEIKR
notes: Humanized IgG4 with a hinge mutation (after Angal et al.), made in CHO DG-44; also called humanized 39E3.G4 antibody; humanized anti-H4-1BB mAb
In assay [1], B1 had a Ka of 1.87e+08 M⁻¹. The same molecule came in with a kon in assay [2] of 4740 M⁻¹ s⁻¹. In assay [3], the Kd turned out to be 5.3 nM. For the same molecule, the koff in assay [4] is 2.53e-05 s⁻¹.

B2: mAb 39E3 (parental rat anti-human 4-1BB monoclonal antibody) (antibody, V domains shown)
VH: EVQLVESGGGLVKPGASLKLSCVASGFTFSDYWMSWVRQTPGKTMEWIGDIKNDGSYTNYAPSLTNRFTISRDNARSTLYLQMNNVRSEDTATYYCTRELTGT
VL: DIIMTQSPFSLAVSEGEMVTMNCKSSQSLLSSGNQKNYLAWYQQKPGQPPELLIYYASTRQSGVPDRFIGSGSGTDFLTLTISDVQAEDLADYYCLQYDRYPFT
notes: constant regions are not; also called parental antibody; parental mAb
As for B2, the Ka in assay [1] worked out at 1.48e+08 M⁻¹. In addition, the kon in assay [2] was 7070 M⁻¹ s⁻¹. The molecule further returned a Kd in assay [3] of 6.7 nM. The molecule further showed a koff in assay [4] of 4.77e-05 s⁻¹.

The kon is a measure of how fast the partners come together. As a reminder, the koff is the rate constant with which the complex falls apart. Read a high koff as a short-lived complex.
